In PMC3140635 (2012):

B1: Glycophorin A TM domain (SNGpATM) TMD (protein)
chain: GERVQLAHHFSEPEITLIIFGVMAGVIGTILLISYGIRRLIKKSPSDVKPLPSPDTDVPLSSVEIENPETSDQ
B2: Glycophorin A TM domain (SNGpATM) TMD (protein)
chain: B1 chain
modifications: E. coli inner membrane proteins at mass ratio 1.0

Tests used:
steric trap, PG/PC [1] = biological target: the molecule itself; assay: steric trap, PG/PC
[2] = biological target: the molecule itself; assay: steric trap, E. coli lipid bilayers, L/P 1500
steric trap, DM micelles = biological target: the molecule itself; assay: steric trap, DM micelles
[3] = biological target: the molecule itself; assay: steric trap, PC bilayers, L/P 1000
steric trap = biological target: the molecule itself; assay: steric trap
steric trap, PE/PC = biological target: the molecule itself; assay: steric trap, PE/PC
steric trap, lysoPC/PC = biological target: the molecule itself; assay: steric trap, lysoPC/PC
steric trap, PG/PC [4] = biological target: the molecule itself; assay: steric trap, PG/PC; remark: listed apart in the source
steric trap, PS/PC = biological target: the molecule itself; assay: steric trap, PS/PC
steric trap, PE/PG/PC = biological target: the molecule itself; assay: steric trap, PE/PG/PC
steric trap, PG/PC [5] = biological target: the molecule itself; assay: steric trap, PG/PC; remark: listed apart in the source
[6] = biological target: the molecule itself; assay: steric trap, PC bilayers, L/P 1400-1600, no IMP
[7] = biological target: B1; assay: steric trap, PC bilayers, L/P 1400-1600

Row | Binder | Kd (steric trap, PG/PC [1]) [nM] | Kd [2] [nM] | Kd (steric trap, DM micelles) [nM] | Kd [3] [nM] | Kd (steric trap) [nM] | Kd (steric trap, PE/PC) [nM] | Kd (steric trap, lysoPC/PC) [nM] | Kd (steric trap, PG/PC [4]) [nM] | Kd (steric trap, PS/PC) [nM] | Kd (steric trap, PE/PG/PC) [nM] | Kd (steric trap, PG/PC [5]) [nM] | Kd [6] [nM] | Kd [7] [nM]
1 | B1 | 32 | 10 | 170 | 0.0015 | 11 | 0.00021 | 6 | 14 | 25 | 5.1 | 47 | 0.003 | 
2 | B2 |  |  |  |  |  |  |  |  |  |  |  |  | 9.2
